Reference: US20260209386A1 (MYTHIC THERAPEUTICS, published 2026)
Residue numbers refer to the chain shown, from its start.

T1: Human PTK7/CCK4 Protein, His Tag, Acro Biosystems PT7-H52H3 (human, UniProt Q13308 31-704)
T1 construct: bought protein; also called Human PTK7 Protein, His Tag, Acro Biosystems; not shown: His tag
T1 sequence: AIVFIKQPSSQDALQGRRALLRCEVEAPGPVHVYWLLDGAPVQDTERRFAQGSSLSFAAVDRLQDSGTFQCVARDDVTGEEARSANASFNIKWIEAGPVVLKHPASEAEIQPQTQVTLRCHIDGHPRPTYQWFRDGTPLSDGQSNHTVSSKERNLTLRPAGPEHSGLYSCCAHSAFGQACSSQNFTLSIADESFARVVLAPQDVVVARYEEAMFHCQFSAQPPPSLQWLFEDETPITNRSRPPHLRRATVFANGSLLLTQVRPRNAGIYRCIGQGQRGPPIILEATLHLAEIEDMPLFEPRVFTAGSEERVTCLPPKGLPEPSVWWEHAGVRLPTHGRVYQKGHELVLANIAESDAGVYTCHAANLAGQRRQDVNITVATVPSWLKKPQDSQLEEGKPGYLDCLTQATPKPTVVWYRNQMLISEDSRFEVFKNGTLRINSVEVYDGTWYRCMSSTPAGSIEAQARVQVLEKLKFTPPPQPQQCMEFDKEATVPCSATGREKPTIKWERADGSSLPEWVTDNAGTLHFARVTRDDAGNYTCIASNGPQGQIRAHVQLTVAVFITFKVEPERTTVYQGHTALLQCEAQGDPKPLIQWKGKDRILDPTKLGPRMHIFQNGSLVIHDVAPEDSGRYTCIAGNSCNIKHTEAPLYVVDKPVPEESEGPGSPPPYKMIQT

B1: MYT11194 (antibody, V domains shown)
VH: EVQLVESGGGLVQPGGSLRLSCTASGIDLSSYVMGWVRQAPGKGLEWVGYIYGHGGTYYATWARGRFTISRDTSKNTVYLQMNSLRAEDTAVYFCARAAADFYFNLWGQGTLVTVSS
VL: EIVMTQSPSTLSASVGDRVIITCQASQSISSYLAWYQQKPGKAPKLLIYDISDLASGVPSRFSGSGSGAEFTLTISSLQPDDFATYYCQSYYWISNSGAAFGQGTKLTVL
notes: IgG
B2: MYT11246 (antibody, V domains shown)
VH: B1 VH with H54G
VL: B1 VL with S97H
notes: IgG
B3: MYT11197 (antibody, V domains shown)
VH: B1 VH with H54G, T57H
VL: B1 VL
notes: IgG
B4: MYT11245 (antibody, V domains shown)
VH: B1 VH with H54G
VL: B1 VL with N96H
notes: IgG
B5: MYT11213 (antibody, V domains shown)
VH: B1 VH with H54G, Y103H
VL: B1 VL
notes: IgG
B6: MYT11195 (antibody, V domains shown)
VH: B1 VH with H54G, G55H
VL: B1 VL
notes: IgG
B7: MYT11221 (antibody, V domains shown)
VH: B1 VH with H54G
VL: B1 VL with A25H
notes: IgG
B8: MYT11244 (antibody, V domains shown)
VH: B1 VH with H54G
VL: B1 VL with S95H
notes: IgG
B9: MYT11225 (antibody, V domains shown)
VH: B1 VH with H54G
VL: B1 VL with I29H
notes: IgG
B10: MYT11240 (antibody, V domains shown)
VH: B1 VH with H54G
VL: B1 VL with Y91H
notes: IgG
B11: MYT11222 (antibody, V domains shown)
VH: B1 VH with H54G
VL: B1 VL with S26H
notes: IgG
B12: MYT11196 (antibody, V domains shown)
VH: B1 VH with H54G, G56H
VL: B1 VL
notes: IgG
B13: MYT11248 (antibody, V domains shown)
VH: B1 VH with H54G
VL: B1 VL with A99H
notes: IgG
B14: MYT11249 (antibody, V domains shown)
VH: B1 VH with H54G
VL: B1 VL with A100H
notes: IgG
B15: MYT11236 (antibody, V domains shown)
VH: B1 VH with H54G
VL: B1 VL with A55H
notes: IgG
B16: MYT11247 (antibody, V domains shown)
VH: B1 VH with H54G
VL: B1 VL with G98H
notes: IgG
B17: MYT11229 (antibody, V domains shown)
VH: B1 VH with H54G
VL: B1 VL with L33H
notes: IgG
B18: MYT11210 (antibody, V domains shown)
VH: B1 VH with H54G, A100H
VL: B1 VL
notes: IgG
B19: MYT11238 (antibody, V domains shown)
VH: B1 VH with H54G
VL: B1 VL with Q89H
notes: IgG
B20: MYT11224 (antibody, V domains shown)
VH: B1 VH with H54G
VL: B1 VL with S28H
notes: IgG
B21: MYT11258 (antibody, V domains shown)
VH: EVQLVESGGGLVQPGGSLRLSCTASGIDLHRYSMGWVRQAPGKGLEWVGIISYGGSTYYASWAKGRFTISRDTSKNTVYLQMNSLRAEDTAVYFCARVGYPGYSGYGYAFDAFDPWGQGTLVTVSS
VL: EIVMTQSPSTLSASVGDRVIITCQSSKSVYNDNWLSWYQQKPGKAPKLLIYGASTLASGVPSRFSGSGSGAEFTLTISSLQPDDFATYYCAGGYSSSSDNGFGQGTKLTVL
notes: IgG
B22: MYT11309 (antibody, V domains shown)
VH: B21 VH with H30S
VL: B21 VL with V29H
notes: IgG
B23: MYT11267 (antibody, V domains shown)
VH: B21 VH with H30S, Y53H
VL: B21 VL
notes: IgG
B24: MYT11272 (antibody, V domains shown)
VH: B21 VH with H30S, Y58H
VL: B21 VL
notes: IgG
B25: MYT11263 (antibody, V domains shown)
VH: B21 VH with H30S, G35H
VL: B21 VL
notes: IgG
B26: MYT11285 (antibody, V domains shown)
VH: B21 VH with H30S, P101H
VL: B21 VL
notes: IgG
B27: MYT11289 (antibody, V domains shown)
VH: B21 VH with H30S, G105H
VL: B21 VL
notes: IgG
B28: MYT11279 (antibody, V domains shown)
VH: B21 VH with H30S, G65H
VL: B21 VL
notes: IgG
B29: MYT11322 (antibody, V domains shown)
VH: B21 VH with H30S
VL: B21 VL with A57H
notes: IgG
B30: MYT11349 (antibody, V domains shown)
VH: EVQLVESGGGLVQPGGSLRLSCTASGIDLSNYAVIWVRQAPGKGLEWVGHIYTYDTTYYANWAKGRFTISRDTSKNTVYLQMNSLRAEDTAVYFCARSFSDISDLIKLWGQGTLVTVSS
VL: EIVMTQSPSTLSASVGDRVIITCQASQSLYNNKDLAWYQQKPGKAPKLLIYEASKLASGVPSRFSGSGSGAEFTLTISSLQPDDFATYYCLGEFSCGSGDCLAFGQGTKLTVL
notes: IgG
B31: MYT11390 (antibody, V domains shown)
VH: B30 VH with H50I
VL: B30 VL with N31H
notes: IgG
B32: MYT11376 (antibody, V domains shown)
VH: B30 VH with H50I, K107H
VL: B30 VL
notes: IgG
B33: MYT11354 (antibody, V domains shown)
VH: B30 VH with H50I, D55H
VL: B30 VL
notes: IgG
B34: MYT11355 (antibody, V domains shown)
VH: B30 VH with H50I, T56H
VL: B30 VL
notes: IgG
B35: MYT11356 (antibody, V domains shown)
VH: B30 VH with H50I, T57H
VL: B30 VL
notes: IgG
B36: MYT11357 (antibody, V domains shown)
VH: B30 VH with H50I, Y58H
VL: B30 VL
notes: IgG
B37: MYT11352 (antibody, V domains shown)
VH: B30 VH with H50I, T53H
VL: B30 VL
notes: IgG
B38: MYT11363 (antibody, V domains shown)
VH: B30 VH with H50I, K64H
VL: B30 VL
notes: IgG
B39: MYT11369 (antibody, V domains shown)
VH: B30 VH with H50I, S100H
VL: B30 VL
notes: IgG

target: T1, Human PTK7/CCK4 Protein, His Tag, Acro …; assay: BLI, antibody on anti-human Fc sensor, 50 nM PTK7

Q: Does B1 bind?
A: binds

Q: Does B2 bind?
A: binds

Q: Does B3 bind?
A: binds

Q: Does B4 bind?
A: binds

Q: Does B5 bind?
A: binds

Q: Does B6 bind?
A: binds

Q: Does B7 bind?
A: binds

Q: Does B8 bind?
A: binds

Q: Does B9 bind?
A: binds

Q: Does B10 bind?
A: binds

Q: Does B11 bind?
A: binds

Q: Does B12 bind?
A: binds

Q: Does B13 bind?
A: binds

Q: Does B14 bind?
A: binds

Q: Does B15 bind?
A: binds

Q: Does B16 bind?
A: binds

Q: Does B17 bind?
A: binds

Q: Does B18 bind?
A: binds

Q: Does B19 bind?
A: binds

Q: Does B20 bind?
A: binds

Q: Does B21 bind?
A: binds

Q: Does B22 bind?
A: binds

Q: Does B23 bind?
A: binds

Q: Does B24 bind?
A: binds

Q: Does B25 bind?
A: binds

Q: Does B26 bind?
A: binds

Q: Does B27 bind?
A: binds

Q: Does B28 bind?
A: binds

Q: Does B29 bind?
A: binds

Q: Does B30 bind?
A: binds

Q: Does B31 bind?
A: binds

Q: Does B32 bind?
A: binds

Q: Does B33 bind?
A: binds

Q: Does B34 bind?
A: binds

Q: Does B35 bind?
A: binds

Q: Does B36 bind?
A: binds

Q: Does B37 bind?
A: binds

Q: Does B38 bind?
A: binds

Q: Does B39 bind?
A: binds
